The source of these data is patent US20140212423A1 (AbbVie / Abbott, published 2014).

Assay [1] concerns the target Repulsive guidance molecule A. Briefly: cell-based or functional assay.
Assay [2] addresses T1, mouse Transferrin Receptor overexpressed on Hek 293 cells (mouse, UniProt Q62351 1-763).
T1 construct: whole, on cells; also called Hek293/mTfR; 293/mTFR
Briefly: 293/mTFR cell-based assay. The protocol:
(§1) Meso-scale Discovery (MSD) Electrochemiluminescesnce (ECL) assays to screen for antibodies or DVDs that bind a desired target antigen expressed on the cell surface were performed as follows: Hek 293 cells overexpressing mouse Transferin Receptor were added onto MSD 96-well plates (MSD Cat# L11 XB-3, lot#2290-EA) which were blocked using blocking buffer (30% FBS Serum (Hyclone) in PBS) at 37° C. for 1 hr. After incubating at RT for 30 min with mild agitation, plates were washed with DPBS 3 times and Abs/DVDs (10,000 ng/ml) were added. After incubating for 1 hr at RT, plates were washed 3 times with DPBS and 25 ul of Goat anti human Sulfo TAG (MSD Cat# R32AC-, Lot# W001162) at 1 μg/ml is added. Following a 1 h incubation at RT for 1 hr, plates are washed and MSD read buffer is added before reading on MSD SECTOR Imager 6000. EC50 values are obtained using Xlfit4 software package

Assay [3] has as its target T1, mouse Transferrin Receptor …. Briefly: cell-based MSD-ECL binding on Hek293 cells overexpressing mouse TfR. As for the experimental part:
as §1

T1 sequence (Q62351 whole entry): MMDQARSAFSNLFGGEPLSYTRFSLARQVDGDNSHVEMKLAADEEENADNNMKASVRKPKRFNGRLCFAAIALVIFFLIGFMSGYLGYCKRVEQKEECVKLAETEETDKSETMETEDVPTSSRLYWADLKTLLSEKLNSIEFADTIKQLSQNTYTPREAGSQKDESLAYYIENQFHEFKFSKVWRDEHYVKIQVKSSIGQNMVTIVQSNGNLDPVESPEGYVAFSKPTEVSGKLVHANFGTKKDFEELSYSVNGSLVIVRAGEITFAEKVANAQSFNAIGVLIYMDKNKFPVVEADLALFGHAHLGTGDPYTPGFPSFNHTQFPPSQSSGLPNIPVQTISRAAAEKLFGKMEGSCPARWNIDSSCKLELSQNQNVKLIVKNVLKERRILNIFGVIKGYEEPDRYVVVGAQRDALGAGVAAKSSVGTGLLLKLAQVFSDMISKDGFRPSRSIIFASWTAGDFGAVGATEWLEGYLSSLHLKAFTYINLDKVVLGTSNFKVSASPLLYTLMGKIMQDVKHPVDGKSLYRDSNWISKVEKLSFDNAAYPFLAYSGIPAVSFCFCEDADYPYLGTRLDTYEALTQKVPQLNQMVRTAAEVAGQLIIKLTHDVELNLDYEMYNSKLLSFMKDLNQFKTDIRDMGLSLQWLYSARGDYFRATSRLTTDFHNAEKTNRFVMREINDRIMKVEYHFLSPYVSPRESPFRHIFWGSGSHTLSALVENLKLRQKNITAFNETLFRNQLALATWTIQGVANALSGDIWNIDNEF

B1: RGMA (AE12-1) (antibody, V domains shown)
VH: EVQLVQSGAEVKKPGASVKVSCKASGYTFTSHGISWVRQAPGQGLDWMGWISPYSGNTNYAQKLQGRVTMTTDTSTSTAYMELSSLRSEDTAVYYCARVGSGPYYYMDVWGQGTLVTVSS
VL: QSALTQPRSVSGSPGQSVTISCTGTSSSVGDSIYVSWYQQHPGKAPKLMLYDVTKRPSGVPDRFSGSKSGNTASLTISGLQAEDEADYYCCSYAGTDTLFGGGTKVTVLG
As to B1, the “BMP Assay (EC50, nM)” value in assay [1] was found to be 0.25 nM.

B2: TfR(AB405)-SL-RGMA(AE12-1) (bispecific antibody)
VH: QVQLVQSGAEVKKPGASVKVSCKASGFTFSNYGMHWIRQAPGQGLEWIAMIYYDSSKMNYADTVKGRFTITRDNSTNTLYMELSSLRSEDTAVYYCAVPTSHYVVDVWGQGTTVTVSSASTKGPEVQLVQSGAEVKKPGASVKVSCKASGYTFTSHGISWVRQAPGQGLDWMGWISPYSGNTNYAQKLQGRVTMTTDTSTSTAYMELSSLRSEDTAVYYCARVGSGPYYYMDVWGQGTLVTVSS
VL: EIVMTQSPATLSVSPGERATLSCQASQDIGNWLAWYQQKPGQSPRLLIYGATSLADGVPARFSGSRSGTEFTLTISSLQSEDFAVYYCLQAYNTPWTFGGGTKVEIKRTVAAPSVFIFPPQSALTQPRSVSGSPGQSVTISCTGTSSSVGDSIYVSWYQQHPGKAPKLMLYDVTKRPSGVPDRFSGSKSGNTASLTISGLQAEDEADYYCCSYAGTDTLFGGGTKVTVLG
notes: DVD-Ig composed from its name; constant regions not assigned
Turning to B2, the “BMP Assay (EC50, nM)” value in assay [1] was determined as 0.73 nM. In assay [2], this molecule came in with an EC50 of 4.41 nM.

B3: TfR(AB405)-LL-RGMA(AE12-1) (bispecific antibody)
chain 1: QVQLVQSGAEVKKPGASVKVSCKASGFTFSNYGMHWIRQAPGQGLEWIAMIYYDSSKMNYADTVKGRFTITRDNSTNTLYMELSSLRSEDTAVYYCAVPTSHYVVDVWGQGTTVTVSSASTKGPSVFPLAPEVQLVQSGAEVKKPGASVKVSCKASGYTFTSHGISWVRQAPGQGLDWMGWISPYSGNTNYAQKLQGRVTMTTDTSTSTAYMELSSLRSEDTAVYYCARVGSGPYYYMDVWGQGTLVTVSS
chain 2: EIVMTQSPATLSVSPGERATLSCQASQDIGNWLAWYQQKPGQSPRLLIYGATSLADGVPARFSGSRSGTEFTLTISSLQSEDFAVYYCLQAYNTPWTFGGGTKVEIKRTVAAPSVFIFPPQSALTQPRSVSGSPGQSVTISCTGTSSSVGDSIYVSWYQQHPGKAPKLMLYDVTKRPSGVPDRFSGSKSGNTASLTISGLQAEDEADYYCCSYAGTDTLFGGGTKVTVLG
With B3, the “BMP Assay (EC50, nM)” value in assay [1] stood at 0.701 nM. The molecule also returned an EC50 in assay [2] of 4.44 nM.

B4: DVD2359 (bispecific antibody)
VH: EVQLLESGGGLVQPGGSLRLSCAASGFTFSNYGMSWVRQAPGKGLEWVASIRSGGGRTYYSDNVKGRFTISRDNSKNTLYLQMNSLRAEDTAVYYCVRYDHYSGSSDYWGQGTLVTVSSASTKGPEVQLVESGGGLVQPGGSLRLSCAASGFTFSNYGMHWIRQAPGKGLEWIAMIYYDSSKMNYADTVKGRFTISRDNAKNSLYLQMNSLRAEDTAVYYCAVPTSHYVVDVWGQGTTVTVSS
VL: DVVMTQSPLSLPVTPGEPASISCKSSQSLLDSDGKTYLNWLLQKPGQSPQRLIYLVSKLDSGVPDRFSGSGSGTDFTLKISRVEAEDVGVYYCWQGTHFPRTFGQGTKVEIKRTVAAPAIQMTQSPSSLSASVGDRVTITCQASQDIGNWLAWYQQKPGKSPKLLIYGATSLADGVPSRFSGSRSGTDFTLTISSLQPEDFATYYCLQAYNTPWTFGGGTKVEIKR
notes: DVD-Ig, outer AB043 (APP), inner AB402 (TfR), HG-short/LK-short; dual variable regions only; constant regions not assigned; also called Aβ(3D6)-SS-AB402 DVD2359; Aβ(3D6)-SS-AB402 DVD-Ig 2359
With B4, the EC50 in assay [2] and in assay [3] was 12 nM in each case.

B5: DVD2361 (bispecific antibody)
chain 1: EVQLLESGGGLVQPGGSLRLSCAASGFTFSNYGMSWVRQAPGKGLEWVASIRSGGGRTYYSDNVKGRFTISRDNSKNTLYLQMNSLRAEDTAVYYCVRYDHYSGSSDYWGQGTLVTVSSASTKGPEVQLVESGGGLVQPGGSLRLSCAASGFTFSNYGMHWIRQAPGKGLEWIAMIYYDSSKMNYADTVKGRFTISRDNAKNSLYLQMNSLRAEDTAVYYCAVPTSHYVVDVWGQGTTVTVSS
chain 2: DVVMTQSPLSLPVTPGEPASISCKSSQSLLDSDGKTYLNWLLQKPGQSPQRLIYLVSKLDSGVPDRFSGSGSGTDFTLKISRVEAEDVGVYYCWQGTHFPRTFGQGTKVEIKRTVAAPEIVMTQSPATLSVSPGERATLSCQASQDIGNWLAWYQQKPGQSPRLLIYGATSLADGVPARFSGSRSGTEFTLTISSLQSEDFAVYYCLQAYNTPWTFGGGTKVEIKR
The molecule B5 yielded a concentration giving a half-maximal response (EC50) in assay [3] of 10.7 nM.

B6: DVD1295 (bispecific antibody)
VH: EVQLLESGGGLVQPGGSLRLSCAASGFTFSNYGMSWVRQAPGKGLEWVASIRSGGGRTYYSDNVKGRFTISRDNSKNTLYLQMNSLRAEDTAVYYCVRYDHYSGSSDYWGQGTLVTVSSASTKGPEVQLVESGGGLVQPGNSLTLSCVASGFTFSNYGMHWIRQAPKKGLEWIAMIYYDSSKMNYADTVKGRFTISRDNSKNTLYLEMNSLRSEDTAMYYCAVPTSHYVVDVWGQGVSVTVSS
VL: DVVMTQSPLSLPVTPGEPASISCKSSQSLLDSDGKTYLNWLLQKPGQSPQRLIYLVSKLDSGVPDRFSGSGSGTDFTLKISRVEAEDVGVYYCWQGTHFPRTFGQGTKVEIKRTVAAPDIQMTQSPASLSASLEEIVTITCQASQDIGNWLAWYQQKPGKSPQLLIYGATSLADGVPSRFSGSRSGTQFSLKISRVQVEDIGIYYCLQAYNTPWTFGGGTKLELKR
notes: DVD-Ig, outer AB043 (APP), inner AB221 (TfR), HG-short/LK-short; dual variable regions only; constant regions not assigned
The molecule B6 yielded a concentration for a half-maximal effect (EC50) in assay [3] of 3.7 nM. This EC50 is about 2.9-fold lower than that of the molecule before.

B7: DVD1294 (bispecific antibody)
VH: EVQLVESGGGLVQPGNSLTLSCVASGFTFSNYGMHWIRQAPKKGLEWIAMIYYDSSKMNYADTVKGRFTISRDNSKNTLYLEMNSLRSEDTAMYYCAVPTSHYVVDVWGQGVSVTVSSASTKGPEVQLLESGGGLVQPGGSLRLSCAASGFTFSNYGMSWVRQAPGKGLEWVASIRSGGGRTYYSDNVKGRFTISRDNSKNTLYLQMNSLRAEDTAVYYCVRYDHYSGSSDYWGQGTLVTVSS
VL: DIQMTQSPASLSASLEEIVTITCQASQDIGNWLAWYQQKPGKSPQLLIYGATSLADGVPSRFSGSRSGTQFSLKISRVQVEDIGIYYCLQAYNTPWTFGGGTKLELKRTVAAPDVVMTQSPLSLPVTPGEPASISCKSSQSLLDSDGKTYLNWLLQKPGQSPQRLIYLVSKLDSGVPDRFSGSGSGTDFTLKISRVEAEDVGVYYCWQGTHFPRTFGQGTKVEIKR
notes: DVD-Ig, outer AB221 (TfR), inner AB043 (APP), HG-short/LK-short; the entries are the dual variable regions only; constant regions not assigned
Molecule B7 displayed an EC50 in assay [3] of 0.11 nM.

B8: TfR(AB405)-LS-RGMA(AE12-1) (bispecific antibody)
chain 1: QVQLVQSGAEVKKPGASVKVSCKASGFTFSNYGMHWIRQAPGQGLEWIAMIYYDSSKMNYADTVKGRFTITRDNSTNTLYMELSSLRSEDTAVYYCAVPTSHYVVDVWGQGTTVTVSSASTKGPSVFPLAPEVQLVQSGAEVKKPGASVKVSCKASGYTFTSHGISWVRQAPGQGLDWMGWISPYSGNTNYAQKLQGRVTMTTDTSTSTAYMELSSLRSEDTAVYYCARVGSGPYYYMDVWGQGTLVTVSS
chain 2: EIVMTQSPATLSVSPGERATLSCQASQDIGNWLAWYQQKPGQSPRLLIYGATSLADGVPARFSGSRSGTEFTLTISSLQSEDFAVYYCLQAYNTPWTFGGGTKVEIKRTVAAPQSALTQPRSVSGSPGQSVTISCTGTSSSVGDSIYVSWYQQHPGKAPKLMLYDVTKRPSGVPDRFSGSKSGNTASLTISGLQAEDEADYYCCSYAGTDTLFGGGTKVTVLG
B8 displayed a concentration giving a half-maximal response (EC50) in assay [2] of 3.9 nM.

B9: AB405-SL-Aβ(3D6) (bispecific antibody)
VH: QVQLVQSGAEVKKPGASVKVSCKASGFTFSNYGMHWIRQAPGQGLEWIAMIYYDSSKMNYADTVKGRFTITRDNSTNTLYMELSSLRSEDTAVYYCAVPTSHYVVDVWGQGTTVTVSSASTKGPEVQLLESGGGLVQPGGSLRLSCAASGFTFSNYGMSWVRQAPGKGLEWVASIRSGGGRTYYSDNVKGRFTISRDNSKNTLYLQMNSLRAEDTAVYYCVRYDHYSGSSDYWGQGTLVTVSS
VL: EIVMTQSPATLSVSPGERATLSCQASQDIGNWLAWYQQKPGQSPRLLIYGATSLADGVPARFSGSRSGTEFTLTISSLQSEDFAVYYCLQAYNTPWTFGGGTKVEIKRTVAAPSVFIFPPDVVMTQSPLSLPVTPGEPASISCKSSQSLLDSDGKTYLNWLLQKPGQSPQRLIYLVSKLDSGVPDRFSGSGSGTDFTLKISRVEAEDVGVYYCWQGTHFPRTFGQGTKVEIKR
notes: DVD-Ig composed from its name; constant regions not assigned; also called AB405-SL-Aβ(3D6) DVD-Ig
In assay [2], B9 displayed an EC50 of 4.71 nM.

B10: TfR(AB405)-GS-RGMA(AE12-1) (bispecific antibody)
VH: QVQLVQSGAEVKKPGASVKVSCKASGFTFSNYGMHWIRQAPGQGLEWIAMIYYDSSKMNYADTVKGRFTITRDNSTNTLYMELSSLRSEDTAVYYCAVPTSHYVVDVWGQGTTVTVSSGGGGSGGGGSEVQLVQSGAEVKKPGASVKVSCKASGYTFTSHGISWVRQAPGQGLDWMGWISPYSGNTNYAQKLQGRVTMTTDTSTSTAYMELSSLRSEDTAVYYCARVGSGPYYYMDVWGQGTLVTVSS
VL: EIVMTQSPATLSVSPGERATLSCQASQDIGNWLAWYQQKPGQSPRLLIYGATSLADGVPARFSGSRSGTEFTLTISSLQSEDFAVYYCLQAYNTPWTFGGGTKVEIKRGGSGGGGSGQSALTQPRSVSGSPGQSVTISCTGTSSSVGDSIYVSWYQQHPGKAPKLMLYDVTKRPSGVPDRFSGSKSGNTASLTISGLQAEDEADYYCCSYAGTDTLFGGGTKVTVLG
notes: as for B2
B10: in assay [1], the “BMP Assay (EC50, nM)” value came to 3.12 nM. Besides, the response in assay [2] was half-maximal at 28.1 nM (EC50).

B11: Aβ(3D6)-GS-AB403 (bispecific antibody)
VH: EVQLLESGGGLVQPGGSLRLSCAASGFTFSNYGMSWVRQAPGKGLEWVASIRSGGGRTYYSDNVKGRFTISRDNSKNTLYLQMNSLRAEDTAVYYCVRYDHYSGSSDYWGQGTLVTVSSGGGGSGGGGSEVQLVESGGGLVQPGGSLRLSCAASGFTFSNYGMHWIRQAPGKGLEWIAMIYYDSSKMNYADTVKGRFTISRDNAKNSLYLQMNSLRAEDTAVYYCAVPTSHYVVDVWGQGTTVTVSS
VL: DVVMTQSPLSLPVTPGEPASISCKSSQSLLDSDGKTYLNWLLQKPGQSPQRLIYLVSKLDSGVPDRFSGSGSGTDFTLKISRVEAEDVGVYYCWQGTHFPRTFGQGTKVEIKRGGSGGGGSGEIVMTQSPATLSVSPGERATLSCQASQDIGNWLAWYQQKPGQSPRLLIYGATSLADGVPARFSGSRSGTEFTLTISSLQSEDFAVYYCLQAYNTPWTFGGGTKVEIKR
notes: DVD-Ig composed from its name; Aβ(3D6) = AB043 read from DVD2359; constant regions not assigned; also called Aβ(3D6)-GS-AB403 DVD-Ig
The molecule B11 registered an EC50 in assay [2] of 1.98 nM.
